Experimental data from PMC4066849 (Structure (London, England : 1993), 2014).

Target: the molecule itself
Test: crystal structure

| Protein | stoichiometry N |
| --- | --- |
| MiD51Δ1–133 (domain or fragment, mouse, UniProt Q8BGV8 134-463, looked up) SLQEKLLSYYRNRAAIPAGEQARAKQAAVDICAELRSFLRAKLPDMPLRDMYLSGSLYDDLQVVTADHIQLIVPLVLEQNLWSCIPGEDTIMNVPGFFLVRRENPEYFPRGSSYWDRCVVGGYLSPKTVADTFEKVVAGSINWPAIGSLLDYVIRPAPPPEALTLEVQYEKDKHLVIDFLPSVTLGDTVLVARPHRLAQYDNLWRLSLRPAETARLRALDQADSGCRSLCLKILKAICKSTPALGHLTASQLTNVILHLAQEEADWSPDMLADRFLQALRGLISYLEAGVLPSALNPKVNLFAELTPQEIDELGYTLYCSLSEPEVLLQT | 2 |
| MiD51 H201A mutant (MiD51Δ1–133 H201A) (domain or fragment, mouse, UniProt Q8BGV8 134-463, looked up) SLQEKLLSYYRNRAAIPAGEQARAKQAAVDICAELRSFLRAKLPDMPLRDMYLSGSLYDDLQVVTADAIQLIVPLVLEQNLWSCIPGEDTIMNVPGFFLVRRENPEYFPRGSSYWDRCVVGGYLSPKTVADTFEKVVAGSINWPAIGSLLDYVIRPAPPPEALTLEVQYEKDKHLVIDFLPSVTLGDTVLVARPHRLAQYDNLWRLSLRPAETARLRALDQADSGCRSLCLKILKAICKSTPALGHLTASQLTNVILHLAQEEADWSPDMLADRFLQALRGLISYLEAGVLPSALNPKVNLFAELTPQEIDELGYTLYCSLSEPEVLLQT | 2 |
